Assay [1] concerns the target T1, Human ROBO2 overexpressed on HEK293 cells (human, UniProt Q9HCK4 22-1378).
T1 construct: also called ROBO2 cells; native ROBO2
T1 sequence: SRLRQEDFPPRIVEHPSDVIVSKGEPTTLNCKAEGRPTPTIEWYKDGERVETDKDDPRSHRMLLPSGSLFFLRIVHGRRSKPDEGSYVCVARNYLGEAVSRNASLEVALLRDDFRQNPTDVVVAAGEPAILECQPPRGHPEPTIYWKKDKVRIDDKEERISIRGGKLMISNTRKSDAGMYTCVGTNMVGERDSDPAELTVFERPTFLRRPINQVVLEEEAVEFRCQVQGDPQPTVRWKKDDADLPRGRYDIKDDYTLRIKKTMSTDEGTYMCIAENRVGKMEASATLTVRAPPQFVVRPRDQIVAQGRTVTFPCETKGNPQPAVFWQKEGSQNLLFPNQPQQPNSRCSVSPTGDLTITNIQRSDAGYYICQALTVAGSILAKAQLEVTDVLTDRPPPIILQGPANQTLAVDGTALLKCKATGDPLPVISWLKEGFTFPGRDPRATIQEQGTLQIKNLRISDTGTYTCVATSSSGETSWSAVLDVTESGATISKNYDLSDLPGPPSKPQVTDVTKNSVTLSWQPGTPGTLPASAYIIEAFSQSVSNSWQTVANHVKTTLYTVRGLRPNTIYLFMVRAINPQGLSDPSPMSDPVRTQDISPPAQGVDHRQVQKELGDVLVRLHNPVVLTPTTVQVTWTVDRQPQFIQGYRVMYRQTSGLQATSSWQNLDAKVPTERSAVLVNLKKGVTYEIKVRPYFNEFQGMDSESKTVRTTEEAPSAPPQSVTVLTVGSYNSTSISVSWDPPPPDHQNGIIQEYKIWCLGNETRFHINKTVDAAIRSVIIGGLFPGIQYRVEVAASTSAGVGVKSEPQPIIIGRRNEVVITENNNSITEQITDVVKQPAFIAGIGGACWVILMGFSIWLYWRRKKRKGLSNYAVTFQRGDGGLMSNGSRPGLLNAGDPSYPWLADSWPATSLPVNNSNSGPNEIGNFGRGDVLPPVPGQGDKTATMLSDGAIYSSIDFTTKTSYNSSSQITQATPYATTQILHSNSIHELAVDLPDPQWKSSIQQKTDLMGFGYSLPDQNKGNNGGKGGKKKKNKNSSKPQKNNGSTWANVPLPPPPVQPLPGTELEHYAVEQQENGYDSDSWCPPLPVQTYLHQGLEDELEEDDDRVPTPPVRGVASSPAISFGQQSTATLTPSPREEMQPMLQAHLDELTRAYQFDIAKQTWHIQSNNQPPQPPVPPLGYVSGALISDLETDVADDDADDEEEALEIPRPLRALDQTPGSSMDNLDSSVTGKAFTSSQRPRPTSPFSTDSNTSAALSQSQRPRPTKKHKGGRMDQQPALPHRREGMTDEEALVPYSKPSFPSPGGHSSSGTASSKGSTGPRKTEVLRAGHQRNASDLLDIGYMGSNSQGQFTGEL
The experiment in a line: flow cytometry, HEK293 cells. As for the experimental part:
Using flow cytometry, improvement in the binding EC₅₀ to human ROBO2 relative to the parental 93H2 was evaluated. Starting at 6.7 nM, 11-point, 3-fold dilution series were made for each antibody and used to stain HEK293 overexpressing human ROBO2 as described above for the ROBO2 fold selectivity (Example 2). […] In addition to measuring improved binding to human ROBO2, it was important to ensure that high affinity binding to both cynomolgus monkey ROBO2 and rat ROBO2 was maintained. Using HEK293 cells overexpressing either cynomolgus monkey ROBO2 or rat ROBO2, the relative dose-dependent binding of 93H2, Abcs25 and Abcs35 was evaluated as described above. High affinity binding to both cynomolgus monkey and rat ROBO2 was maintained in Abcs25 and Abcs35 (Table 4). […] Briefly, Abcs35 was immobilized to 300 resonance units (RU) on a CM5 chip. Association of ROBO2 Ig1-Ig2-His (ROBO2) was measured over 5 minutes and dissociation was followed for a period of 10 minutes.
(§1) The binding profile of Abcs35-J compared to Abcs35 was determined for human ROBO2, orthologs from cynomolgus monkey and rat, human ROBO1 and specificity for the RSK epitope from ROBO2 but not KSR from ROBO1. Binding was assessed by flow cytometry as described in Examples 2 (homolog specificity), Example 3 (ortholog reactivity) and Example 5 (RSK vs KSR epitope specificity). […] Binding of the antibodies was detected using a secondary fluorochrome conjugated anti-human IgG F(ab′)₂ antibody and samples analyzed on a Fortessa cytometer (BD Biosciences).

In assay [2] the target is T2, Human ROBO1 overexpressed on HEK293 cells (human, UniProt Q9Y6N7 26-1651).
T2 construct: also called ROBO1 cells
T2 sequence (Q9Y6N7 26-1651 limits assumed): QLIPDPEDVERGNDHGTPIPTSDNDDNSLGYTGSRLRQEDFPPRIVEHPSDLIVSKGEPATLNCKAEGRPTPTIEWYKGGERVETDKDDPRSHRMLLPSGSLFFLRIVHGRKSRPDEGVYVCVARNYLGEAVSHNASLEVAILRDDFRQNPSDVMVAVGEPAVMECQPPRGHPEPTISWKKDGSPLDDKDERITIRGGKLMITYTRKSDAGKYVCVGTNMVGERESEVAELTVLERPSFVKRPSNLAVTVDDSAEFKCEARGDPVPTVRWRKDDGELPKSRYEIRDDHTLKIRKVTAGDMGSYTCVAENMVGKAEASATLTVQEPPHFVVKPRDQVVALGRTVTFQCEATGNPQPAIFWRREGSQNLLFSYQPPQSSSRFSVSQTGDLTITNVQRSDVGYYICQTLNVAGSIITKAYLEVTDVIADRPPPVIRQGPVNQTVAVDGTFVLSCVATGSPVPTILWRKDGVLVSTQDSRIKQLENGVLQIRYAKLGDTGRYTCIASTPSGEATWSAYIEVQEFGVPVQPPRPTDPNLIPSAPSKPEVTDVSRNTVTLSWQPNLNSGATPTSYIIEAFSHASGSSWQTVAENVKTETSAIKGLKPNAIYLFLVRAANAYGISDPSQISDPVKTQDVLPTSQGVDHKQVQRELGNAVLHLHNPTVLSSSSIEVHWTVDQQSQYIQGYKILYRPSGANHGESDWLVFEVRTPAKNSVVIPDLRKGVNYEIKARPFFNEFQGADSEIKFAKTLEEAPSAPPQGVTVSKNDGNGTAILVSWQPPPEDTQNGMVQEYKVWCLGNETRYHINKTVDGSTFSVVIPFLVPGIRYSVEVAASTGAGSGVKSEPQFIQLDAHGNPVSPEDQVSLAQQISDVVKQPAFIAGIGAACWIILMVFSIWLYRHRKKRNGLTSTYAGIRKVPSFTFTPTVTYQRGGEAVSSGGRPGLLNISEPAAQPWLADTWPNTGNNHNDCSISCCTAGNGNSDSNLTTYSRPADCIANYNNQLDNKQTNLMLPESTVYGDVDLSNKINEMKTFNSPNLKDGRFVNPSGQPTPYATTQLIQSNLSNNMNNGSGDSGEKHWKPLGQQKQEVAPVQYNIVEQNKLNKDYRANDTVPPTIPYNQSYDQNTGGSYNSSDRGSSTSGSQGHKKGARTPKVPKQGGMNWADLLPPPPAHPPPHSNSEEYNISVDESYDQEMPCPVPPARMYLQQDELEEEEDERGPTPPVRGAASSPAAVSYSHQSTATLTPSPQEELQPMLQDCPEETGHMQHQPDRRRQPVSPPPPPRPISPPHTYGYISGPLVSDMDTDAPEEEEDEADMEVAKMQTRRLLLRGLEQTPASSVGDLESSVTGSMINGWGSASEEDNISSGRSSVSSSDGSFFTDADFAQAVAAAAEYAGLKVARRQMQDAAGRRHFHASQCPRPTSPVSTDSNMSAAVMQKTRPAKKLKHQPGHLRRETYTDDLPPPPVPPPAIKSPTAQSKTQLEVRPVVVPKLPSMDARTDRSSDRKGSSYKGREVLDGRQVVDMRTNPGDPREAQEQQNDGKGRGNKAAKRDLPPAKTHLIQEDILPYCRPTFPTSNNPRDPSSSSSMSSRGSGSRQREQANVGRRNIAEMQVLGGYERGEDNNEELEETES
The experiment in a line: flow cytometry on HEK293 cells overexpressing human ROBO1. How it is done: as §1, with “Biosciences). […] FIGS. 16A-16F depicts binding profiles of Abcs35 (black circles) or Abcs35-J (grey squares) to human ROBO2 (FIG. 16A), cynomolgus monkey ROBO2 (FIG. 16B), rat ROBO2 (FIG. 16C), human ROBO1 (FIG. 16D), ROBO1 containing the ROBO2 RSK epitope (FIG. 16E) or ROBO2 containing the ROBO1 KSR epitope (FIG. 16 F).” for “Biosciences).”
Background: A flow cytometer gives signals particle by particle.

Where a chain is given by its changes, count along the chain named.

The source of these data is patent US20200157212A1 (Pfizer, published 2020).

B1: Abcs35 (antibody, human IgG1, kappa)
heavy: EVQLVQSGAEVKKPGASVKVSCKASGYTFTGYYMHWVRQAPGQGLEWMGWINPKNGDTEFPQKFQGRVTMTRDTSITTAYMDLSRLRSDDTAVYYCARESGDDAFDIWGQGTMVTVSSASTKGPSVFPLAPSSKSTSGGTAALGCLVKDYFPEPVTVSWNSGALTSGVHTFPAVLQSSGLYSLSSVVTVPSSSLGTQTYICNVNHKPSNTKVDKKVEPKSCDKTHTCPPCPAPEAAGAPSVFLFPPKPKDTLMISRTPEVTCVVVDVSHEDPEVKFNWYVDGVEVHNAKTKPREEQYNSTYRVVSVLTVLHQDWLNGKEYKCKVSNKALPAPIEKTISKAKGQPREPQVYTLPPSREEMTKNQVSLTCLVKGFYPSDIAVEWESNGQPENNYKTTPPVLDSDGSFFLYSKLTVDKSRWQQGNVFSCSVMHEALHNHYTQKSLSLSPGK
light: DIVMTQSPSSLSASVGDRVTITCRASQSISSYLNWYQQKPGKAPKLLIYAASSLQSGVPSRFSGSGSGTDFTLTISSLQPEDFATYYCQQSVGLFFGGGTKVEIKRTVAAPSVFIFPPSDEQLKSGTASVVCLLNNFYPREAKVQWKVDNALQSGNSQESVTEQDSKDSTYSLSSTLTLSKADYEKHKVYACEVTHQGLSSPVTKSFNRGEC
notes: fully human IgG1; VH of Ab96 with VL of Ab123
In general, EC50 refers to the midpoint of the concentration-response curve. Higher therefore signals a less potent agent. In assay [1], B1 showed an EC50 of 89 pM. Besides, the binding result in assay [2] is given as “no binding (tested: last point just below 10^1 nM)”.

B2: Abcs35-J (antibody, human IgG1, kappa)
heavy: B1 heavy with D82E
light: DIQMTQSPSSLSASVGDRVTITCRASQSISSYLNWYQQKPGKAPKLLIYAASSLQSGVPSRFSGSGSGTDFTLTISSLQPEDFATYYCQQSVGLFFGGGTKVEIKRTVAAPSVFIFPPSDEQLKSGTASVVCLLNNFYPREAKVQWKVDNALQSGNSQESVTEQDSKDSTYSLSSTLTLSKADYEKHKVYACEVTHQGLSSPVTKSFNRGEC
notes: germlined variant of Abcs35; also called ABCS-J
Take B2: the EC50 in assay [1] is 102 pM. For the same molecule, in assay [2], the binding result is on record as “no binding (tested: last point just below 10^1 nM)”.
